From patent EP0938497B1

Biological target: IgG
Assay: microcalorimetry and surface plasmon resonance

locked helix peptide FNM(5)QQRRFY(6)ALH, cyclized (Fig. 11)
Kd: 100 µM
